Test results reported in patent US4790988A, “Method and compositions for the treatment of thrombotic episodes” (University of Florida, priority 1987, dated 1988).

Tested on: thrombus in the circumflex coronary artery
Assay: Electrically induced coronary thrombus model in dogs, restoration of blood flow
Format: in vivo
Conditions: infused into a peripheral vein for 30 minutes at 10 microgram/kg/min; mongrel dogs
Protocol: A thrombus was introduced into the circumflex coronary artery of mongrel dogs by electrical current. Blood flow in the artery was measured by a commercially available electromagnetic flow probe. After stable blood flow for five minutes without electrical current, homogeneous recombinant human tissue plasminogen activator (Genentech) was infused into a peripheral vein for 30 minutes at a dose of 10 microgram/kg/min. In another cohort of animals, pentapeptide 6A was infused intra-arterially proximal to the occlusion at a dose of 5 micromoles/min for 20 min.

B1: tissue plasminogen activator: homogeneous recombinant human tissue plasminogen activator (Genentech) (protein, UniProt P00750 36-562, looked up)
Tissue-type plasminogen …: SYQVICRDEKTQMIYQQHQSWLRPVLRSNRVEYCWCNSGRAQCHSVPVKSCSEPRCFNGGTCQQALYFSDFVCQCPEGFAGKCCEIDTRATCYEDQGISYRGTWSTAESGAECTNWNSSALAQKPYSGRRPDAIRLGLGNHNYCRNPDRDSKPWCYVFKAGKYSSEFCSTPACSEGNSDCYFGNGSAYRGTHSLTESGASCLPWNSMILIGKVYTAQNPSAQALGLGKHNYCRNPDGDAKPWCHVLKNRRLTWEYCDVPSCSTCGLRQYSQPQFRIKGGLFADIASHPWQAAIFAKHRRSPGERFLCGGILISSCWILSAAHCFQERFPPHHLTVILGRTYRVVPGEEEQKFEVEKYIVHKEFDDDTYDNDIALLQLKSDSSRCAQESSVVRTVCLPPADLQLPDWTECELSGYGKHEALSPFYSERLKEAHVRLYPSSRCTSQHLLNRTVTDNMLCAGDTRSGGPQANLHDACQGDSGGPLVCLNDGRMTLVGIISWGLGCGQKDVPGVYTKVTNYLDWIRDNMRP
animals with coronary blood flow restored: 5 of 7 | duration reflow persisted: 20.0 ± 10.9 min | peak restored coronary blood flow (mean±SD): 22 ± 12 mL/min | time to flow restoration: 12.3 ± 9.1 min
